According to the nanobody polyreactivity screen of Harvey et al. (2022):

Experiment: yeast display, Sf9 membrane polyspecificity reagent, FACS + sequencing; frameworks hold sequencing errors
Procedure, shortened: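 Galactose induction of a Saccharomyces cerevisiae BJ5465 synthetic nanobody display library ran 36–48 hours. The cells were then stained for 1 hour at 4 °C with 10% biotinylated, detergent-solubilized Sf9 membrane reagent, pulled down on streptavidin microbeads and FACS-sorted into low and high (top ~1%) gates on expression and reagent-binding fluorescence. Labels for polyreactivity follow the gate of origin.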

Sequence | polyreactivity (PSR sort gate)
QVQLVESWGGLVQAGGSLRLSCAASGFIFQTNVMGWYRQAPGKERELVAAISSGDSTYYADSVKGRFTISRDNAKNTVYLQMNSLKPEDTAVYYCAADVLGTTTTVGGFNYWGQGTQVTVSS | low polyreactivity
QVQLVESWGGLVQAGGSLRLSCAASGFTFRGYARGWYRQAPGKERELVAAISRSGGSTNFADSVKGRFTISRDNAKNTVYLQMNSLKPEDTAVYYCAAGWNPYDYWGQGTQVTVSS | high polyreactivity
QVQLVESWGGLVQAGGSLRLSCAASGFTYSQYVMGWYIQAPGKERELVASITGNGGSTRYADSVKGRFTISRDNAKNTVYLHMNSLKPEDTAVYYCAARYVYFRWGSFDYWGQGTQVTVSS | high polyreactivity
QVQLVESWGGLVQAGGSLRLSCAASGIIFRTYAMGWYRQAPWKERELVAAINSDGSTYYADSVKGRFTISRDNAKNTVYLQMNSLKPEDTAVYYCAATYGRSRKDGYWGQGTQVTVSS | high polyreactivity
QVQLVESWGGLVQAGGSLRLSCAASGITFDGNAMGWYRQAPGKERELVAGISGSGGGTYYADSVKGRFTISRDNAKNTVYLHMNSLKPEDTAVYYCAADTSTSHAYDYWGQGTQVTVSS | low polyreactivity
QVQLVESWGGLVQAGGSLRLSCAASGITFYVYAMGWYRQAPGKERELVAAISSGSSTYYADSVKGRFTISRDNAKKTVYLQMNSLKPEDTAVYYCAARYRKYLSEYWGQGTQVTVSS | high polyreactivity
QVQLVESWGGLVQAGGSLRLSCAASGRIFALYAMGWYRKAPGKERELVASINSRVGSTNYADSVKGRFTISRDNAKNTVYLQMNSLKPEDTAVYYCNARFVYAYQRYYWGQGTQVTVSS | high polyreactivity
QVQLVESWGGLVQAGGSLRLSCAASGRIFFVNAMGWYRQAPGKERELVAAITSGGSTSYADSVKGRFTISRDNAKNTVFLQLNSLKAEDTAVYYCAAVFYRRFDYWGQGTQVTVSS | low polyreactivity
QVQLVESWGGLVQAGGSLRLSCAASGSIFFPNAMGWYRQAPWKERELVAAIRGGTNTYYADSVKGRFTISRDNAKNTVYLQMNSLKPEDTAVYYCAARRSSHWFTYDYWGQGTQVTVSS | high polyreactivity
QVQLVESWGGLVQAGGSLRLSCAASGSIFSDYAMGWYRQARGKERELVAAITQSGGSTYADSVKGRFTISRDNAKNTVYLQMNSLKPDDTAVYYCAADEVPGFGYPPYPWFDYWGQGTQVTVSS | low polyreactivity
QVQLVESWGGLVQAGGSLRLSCAASGSNFELYAMGWYRQAPGKERELVASITWSASNTHYADSVKGRFTISRDNAKNTVYLQINSLKTEDTAVYYCAKDVLYGLFDGDSWGQGTQVTVSS | low polyreactivity
QVQLVESWGGLVQAGGSLRLSCAASGSTFYAYAMGWYRQAPGKERELVAAIDSGGSTYYADSVKGRFTISRDNAKNTVYLQMNSLIPEDTAVYYCAVRHRYTRAYWGRDYWGQGTQVTVSS | low polyreactivity
QVQLVESWGGLVQAGGSLRLSCAASGSTFYWYTMGWYRQAPGKERELVARISSSGSTNYADSVKGRFTISRDNAKNTVYLQMKSLKPEDTAVYYCKKDWIYRGYDYWGQGTQVTVSS | high polyreactivity
QVQLVESWGGLVQAGGSLRLSCAASGYTIPDNAMGWYRQAPGKEREWVATITSGASTYYADSVKGRFTSSRDNAKNTVYLQMNSLNPEDTAVYYFARDPWALGGIGSDQKYDYWGQGTQVTVSS | low polyreactivity
QVQLVESWRGLVQAGGSLRLSCAASGNTFVYNAMRWYRQAPGKERELVAGITKTGGRTYYADSVKGRFTISRDIAKNTVYLEMNSLKPEDTAVYYCAARPWNDGYYVGRFHMVYWGQGTQVTVSS | low polyreactivity
QVQLVETAAGLVQAGGSLRLSCAASGSIYYSYAMGGYRQAPGKERELVAAITDSGDSTYYADSVKGRFTISRDNAKNTVYLQMNSLKPEDTAVYYCAAGFYPYYYWGLGTQVTVSS | low polyreactivity

Sequence | polyreactivity (PSR sort gate)
QVQLVETAGGLVQARGSLRLSCAASGFIFRYNAMGWYRQERGKERELVAAINYRGGSTYYADSVKGRFTISRDNAKNTVYLQMNSLKPEDTAVYYCAVLTYRGRFEYWGQGTQVTVSS | high polyreactivity
QVQLVETAGRLVQAGGSLRLSSAASGFTFYIYAMGWSRHAPGKERQLVAAISGGGSTYYADSVKGRFTISRDNAKNTVYLQMNSLKPEVTAVYYCAVFPAAIYHRRGTYDYWGQGTQVTVSS | high polyreactivity
QVQLVETGAGLVQAGGSLRLSCAPSGNTLGPYAKGWYRQGPGKERELVAAITWSGGITDYADSVKGRLTISRDNAKKTVYLQMNSLKPEDTAVYYCATKLTYTLTSGAYAYDYWGQGTQVTVSS | low polyreactivity
QVQLVETGGGIVQAGGILRLSCAYSGSIFYLYAMGWYRQAPGKERELVAAISTSGGRTHYADSVKGRITISRDNAKNTVYLQMNSLKPEDTAVYYCAAPAARPDGGYGYWGQGTQVTVSS | high polyreactivity
QVQLVETGGGIVQAGGSLRLSFAASGFTSDYNAMGWYRQAPGKERELVAAISYSGGSTYYADSVKGRFTISRDNAKNTVYLQMNSLKPEDTAVYYCANGRYGRRYYYWGQGTQVTVSS | high polyreactivity
QVQLVETGGGIVQAGGSLRLSSAASGRIFASNAMGWYRQAPGKERELVAAIDQCGGSTYYADSVKGRFTISRDNAKNTVYLQMNSLKPEDTAVYYCAADYITAYPRLYNYWGQGTQVTVSS | low polyreactivity
QVQLVETGGGLFQAGGSLRLSCAPCGSIFFSIAMGWYRQAPGKDRELVAAIDSGASSTYADSVKGRFTSSRDHAKNTVYLQINSLKPEDTAVYYFAADYPATGADGYDYWGQVTQVTVSS | low polyreactivity
QVQLVETGGGLVQAGGSFRLSCAASGGIFRTYAKGWYRQAPGKERELVAAISRSGGSTYYADSVKGRFTISRDNAKNTVYLQMNSLKPEDTAVYYCAASRPYYPLYGYWGQGTQVTVSS | high polyreactivity
QVQLVETGGGLVQAGGSHRLSCAASGSIFSSYVMGWYRQAPGKERELVDAISSGGRTYYADSVKGRFTISRDNAKNTVYLQMNSLKPDETAVYYCAARTRRYPRPGLSPGNYWGQGTQVTVSS | high polyreactivity
QVQLVETGGGLVQAGGSLRISCAPSGSIFQRYAMGWYTQAPGKERELVAAITGSGGSTYYADSVMWRFTISRDNAKKTVYLQMNILKPEDSAVYYCAKRYPSRQYTLYNYWGLGTQVTVSS | high polyreactivity
QVQLVETGGGLVQAGGSLRITCAASGSIFSYYDMGLNRQAPGNEREMVAAFSWDGGDRTYADSVKGRFTISRDIAKNTVYLQMNSLKPEDSAVYYCAKNTGSYRRVNLDYWGQGTQVTVSS | low polyreactivity
QVQLVETGGGLVQAGGSLRLICAASGSIFQGNVMGWYRQAPGKERELVAAISSGGRTYYADSVKGRFTISRDNAKNTVYLQMNSLKPEDTAVYYCAASWLTSYAYIMYYWGQGTQVTVSS | high polyreactivity
QVQLVETGGGLVQAGGSLRLRGAASGFTFPWYAMGWYRQAPGKERELVAAISTSGDSTYYADSVKGRFTISRDNAKNTVYLQMNSLKPEDTAVYYCAARVVRGRYGYWGQGTQVTVSS | high polyreactivity
QVQLVETGGGLVQAGGSLRLSCAASFRSNTMGGYRQAPRKERELVAAISGSGSRTYYADSVKGRFTISRDNAKKTVYLQMNSLKPEDTAVYYCAALSYRNSEVGTSRGDYWGQGTQVTVSS | high polyreactivity
QVQLVETGGGLVQAGGSLRLSCAASGFNLPIYAMRCYRQPPGKEREFVAAITWTGGSTYYADSVKGRFTISRDNAKNTVYLQMNSLKPEDTAVYYCNAEGPSYYYIIYDYWGQGTQVTVSS | high polyreactivity
QVQLVETGGGLVQAGGSLRLSCAASGFTFTGNTMGWSRQAPGKERELVAAISQSGSRTYYADSVKGRFTISRDNAKNTVYLQMNSLKPEDTAVYYCNADYSSYWTSYDYWGQGTQVTVSS | high polyreactivity
